# B1: LINE1-full (parent)
# chain: UACGUAGGUGGUUUUCCCCUGAUAGUGCUAAGGGGGCCUGGAAGUUUGGACUGGGCAGAGCUCAACACAGCGUGGCAAAGUGGCUGUGGCUAGACUGCCUCUCUGGAUUCCUCGUCACUCAGCAGGGCAUCUCUGAGAGAAAUGCC
# Variants of: B1
# Assay: self-cleavage, relative activity (ratio to wild type); higher = more cleavage; in vitro, sequencing; the parent is a self-cleaving ribozyme
row,Variant,self-cleavage
1,CACGUAGGUGGUUUUCCCCUGAUAGUGCUAAGGAGGCCUGGAAGUUUGGACUGGGCAGAGCUCAACACAGCGUGGCAAAGUGGCUGUGGCUAGACUGCCUCUCUGGAUUCCUCGUCACUCAGCAGGGCAUCUCUGAGAGAAAUGCC [U1C G34A],0.75
2,UACGUAGGUGGUCUUCCCCUGAUAGUGCUAAGGGGGCCUGGAAGUUUGGACUGGGCAGAGCUCAACACAGCGUGGCAAAGUGGCUGUGGCUAGACUGCCUCUCUGGAUUCCACGUCACUCAGCAGGGCAUCUCUGAGAGAAAUGCC [U13C U112A],1.05
3,UACGUAGGUGGUUUUCCCCUGAUAGUGCUAAGGGGGCCUGGAAGUUUGGACUGGGCAGAGCUCAACACAGCGUGGCAAAGUGGCUGUGGCUAGACUGCCUCUCUGGAUUCCUAGUCACUCAGCAGGGCAUCUCUGAGAGAAACGCC [C113A U143C],0.76
4,UACGUAGGUGGUUUUCCCCUGAUAGUGCUAAGGGGGCCUGGAAGUUUGGACUGGGCAGAGCACAACACAGCGUGGCAAAGUGGCUGUGGCUAGACUGCCUCUCUGGAUUCCUCGUCACUCAGCAGGGCAUCUCAGAGAGAAAUGCC [U62A U134A],0.07
5,UACGUAGGUGGUUCUCCCCUGAUAGUGCUAAGGGGGCCUGGAAGUUUGGACUGGGCAGAGCUCAACACAGCGUGGCAAAGUGGCUGUGGCUAGACUGCCUCUCUGGAUACCUCGUCACUCAGCAGGGCAUCUCUGAGAGAAAUGCC [U14C U109A],1.18
6,UACGUAGGUGGUUUUCCCCUGAUAGUGCUAAGGGGGCCUGGAAGUUUGGACUGGGCAGAGCUCAACACAGCGUGGCAAAGUGGCUGUGGCUAGACUGCCUCUCUGGAUUCUUCGACACUCAGCAGGGCAUCUCUGAGAGAAAUGCC [C111U U115A],1.77
7,UACGUAGGUGGUUUUCCCCUGAUAGUGCUAAGGGGGCCUGGAAGAUUGGACUGGGCAGAGCUCAACACAGCGUGGCAAAGUGGCUGUGGCUAGACUGCCUCUCUGGAUUCCUCGUCACUCAGCAGGGCAUCCCUGAGAGAAAUGCC [U45A U132C],1.93
8,UACGUGGGUGGUUUUCCCCUGAUAGUGCUAAGGGGGCCUGGAAGUUUGGACUGGGCAGAGCUCAACACAGCGUGGCAAAGUGGCUGUGGCUAGACUGCCUCUCUGGAUUCCUCGGCACUCAGCAGGGCAUCUCUGAGAGAAAUGCC [A6G U115G],2.04
9,UACGUAGGUGGUUUUCCCCUGAUAGUGCUAAGGGGGCCUGGAAGUUUGGACUGGGCAGAACUCAACACAGCGUGGCAAAGUGGCUGUGGCUAGACUGCCUCUCUGGAUUCCUCGUCACUCAGCAGGGCUUCUCUGAGAGAAAUGCC [G60A A129U],0.02
10,UACGUAGGUGGUUUUCCCCUGAUAGUGCUAAGGGGGCCUGGAAGUUUGGACUGGGCAGAGCUCAACACAGCGUGGCAAAGUGGCUGUGGCUAGACUGCCUCUCUGGAUUCCUCGUCACUCAGCAGGGCAACUCUGAGUGAAAUGCC [U130A A138U],1.64
11,UACGUAGGUGGUUUUCCCCUGAUAGUGCUAAGGGGGCCUGGAAGUUUGGACUGGGCAGAGCUCAACUCAGCGUGGCAAAGUGGCUGUGGCUAGACUGCAUCUCUGGAUUCCUCGUCACUCAGCAGGGCAUCUCUGAGAGAAAUGCC [A67U C99A],0
12,UACGUAGGUGGUUUUCCCCUGAUAGUGCUAAGGGGGCCUGGAAGUUUGGACUGGGCAGAACUCAACACAGCGUGGCAAAGCGGCUGUGGCUAGACUGCCUCUCUGGAUUCCUCGUCACUCAGCAGGGCAUCUCUGAGAGAAAUGCC [G60A U81C],0.03
13,UACGUAGGUGGUUUUCCCCUGAUAGUGCUAAGGGGGCCUGGAAGUUUGGACUGGACAGAGCUCAACACAGCGUGGCAAAGUGGCUGUGGCUAGACUGCCUCUCUGGAUUCCUCGUCACUCAGCAGGGCAUCUCUGAGAGAGAUGCC [G55A A141G],0.11
14,UACGUAGGUGGUUUUCCCCUGAUAGUGCUAAGGGGGCCUGGAAGUUUGGACUGAGCAGAGCUCAACACAGCGUGGCAAAGUGGCUGUGGCUAGACUGCCUCUCUGGAUUCCUCGUAACUCAGCAGGGCAUCUCUGAGAGAAAUGCC [G54A C116A],0.47
15,UACGUAGGUGGUUUUCCCCUGAUAGUGCUAAGGGGGCCUGGGAGUUUGGACUGGGCAGAGCUCAACACAGCGUGGCAAAGUGGCUGUGGCUAGACUGCCUCUCUGGAUUCCUCGUCACUCAGCAGGGCAUCUCUGAGAGAAAUACC [A42G G144A],1.17
16,UACGUAGGUGGUUUUCCCCUGAUAGUGCUAAGGGGGCCUGGAAGUUUGGACUGGGCAGAGCUCAACACAGCGUGGCAAAGUGGCUGUGGCUAGACUGCCUCUCUGGAUUCCCCGUCUCUCAGCAGGGCAUCUCUGAGAGAAAUGCC [U112C A117U],1.39
17,UACGUAGGUGGUUUUCCCCUGAUAGUGCUAAGGGGGCCUGGAAGUUUGGACUGGGCAGAGCUCAACACAGCGUGGCAAAGUGGCUGUGGCUAGACUGCCUCUCAGGAUUCCUCGUAACUCAGCAGGGCAUCUCUGAGAGAAAUGCC [U104A C116A],1.11
18,UACGUAGGUGGUUUCCCCCUGAUAGUGCUAAGGUGGCCUGGAAGUUUGGACUGGGCAGAGCUCAACACAGCGUGGCAAAGUGGCUGUGGCUAGACUGCCUCUCUGGAUUCCUCGUCACUCAGCAGGGCAUCUCUGAGAGAAAUGCC [U15C G34U],1.65
19,UACGUAGGUGGUUUUCCCCUGAUAGUGCUAAGGGGGCCUGGAAGUUUGGACUGGGCAGAGCUCAACACAGCGUGGCAAAGCGGCUGUGGCUAGACUGCCUCUCCGGAUUCCUCGUCACUCAGCAGGGCAUCUCUGAGAGAAAUGCC [U81C U104C],1.48
20,UACGUAGGUGGUUUUCCCCUGAUAGUGCUAAGGGGGCCUGGAAGUUUGGACUGGGCAGAGCUCAACACAGCGUGGCAAAGUGGCUGUGGCUAGACUGCCUCUCUGCACUCCUCGUCACUCAGCAGGGCAUCUCUGAGAGAAAUGCC [G106C U108C],2.2
